As a reminder, the kon is a measure of how fast the partners come together. The term koff denotes the first-order rate constant of dissociation. Higher therefore signals a short-lived complex.

Data on 21 molecules can be found in PMC10720262 (Cell Reports, 2023).

In test [1] the target is recombinant full-length PfCSP (Plasmodium falciparum circumsporozoite protein, strain NF54) (Plasmodium falciparum NF54, UniProt P19597). The test is described as follows: cell-based or functional assay.
In a further test the target is T1, NANP6 peptide (Plasmodium falciparum NF54).
T1 construct: source: synthetic peptide (CPC Scientific)
Description: SPR; Carterra LSA; mAb amine-coupled to a CMD200M chip, peptide titrated in 2-fold steps up to 8 ug/mL without regeneration; 25 C; HBSTE (10 mM HEPES pH 7.4, 150 mM NaCl, 3 mM EDTA, 0.01% Tween 20); 1:1 Langmuir model; mean of triplicates; KD includes avidity for antigens with several repeats. The note with it: both partners purified. A general note: In SPR one partner is held on a chip, and binding of the other changes the refractive index at the surface.

In test [2] the target is T2, recombinant full-length PfCSP (strain NF54) (Plasmodium falciparum NF54, UniProt P19597).
T2 construct: also called NF54 PfCSP; Pf circumsporozoite protein; not shown: His tag, C-terminal, kept
T2 sequence (P19597 20-375): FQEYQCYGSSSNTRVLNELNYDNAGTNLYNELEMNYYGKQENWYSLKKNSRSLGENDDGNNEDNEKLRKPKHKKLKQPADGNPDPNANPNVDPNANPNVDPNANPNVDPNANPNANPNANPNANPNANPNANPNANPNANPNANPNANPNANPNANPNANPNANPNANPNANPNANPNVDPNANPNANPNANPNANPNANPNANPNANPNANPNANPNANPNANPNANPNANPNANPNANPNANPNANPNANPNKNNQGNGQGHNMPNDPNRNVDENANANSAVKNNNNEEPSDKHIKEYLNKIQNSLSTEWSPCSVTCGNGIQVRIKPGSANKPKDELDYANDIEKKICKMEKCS
Description: BLI; Octet RED96; His-tagged PfCSP on Ni-NTA biosensors, 2-fold dilutions of mAb; PBS pH 7.4, 0.01% BSA, 0.002% Tween 20; 1:1 binding model. The note with it: both partners purified. In general terms: BLI is a label-free optical method that tracks binding on a fibre tip over time.

Numbering of substitutions follows the chain as printed.

recombinant full-length PfCSP (Plasmodium falciparum circumsporozoite protein, strain NF54), sequence (P19597 20-375): as above

B1: mAb Ky15.10 (human IgG1) (antibody, V domains shown)
VH: QVQLVESGGGVVQPGRSLRLSCAASGFTFSNSGMHWVRQVPGKGLEWVAIIWYDGSNKYYADSVKGRFSVSRDNSENTLYLQMSNLRAEDTAVYYCVRAYFDSENLYDYYGMDVWGQGTTVTVSS
VL: DIQMTQSPSTLSASVGDRVTITCRASQSISRWLAWFQKKPGKAPKLLIYTASNLESGVPSRFSGSGSGTEFTLTISSLQPDDFATYYCQQYYNYWTFGQGTKVEVK
Take B1: the other in test [1] is under 1.5 µg/mL.

B2: mAb Ky15.3 (human IgG1) (antibody, V domains shown)
VH: QVQLVESGGGVVQPGRSLRLSCVASGFTFSNAGMHWVRQTPGKGLEWVAIIWYDGSIKYYGESVKGRFTISRDNSKNTLYLEMSSLRAEDTAVYFCVRAYSGSLYDKYGMDVWGQGTTVIVSS
VL: DIQMTQSPSTLSASVGDRVTISCRASQTISTWLAWFQQKPGKAPKLLIYAASSLQSGVPSRFSGSGSGTDFTLTISNLQPDDFATYYCQQFNSYWTFGQGTKVEIK
With B2, the other in test [1] is under 1.5 µg/mL.

B3: Ky15.3 (antibody, V domains shown)
VH: B2 VH
VL: B2 VL
notes: source: CHO-3E7, purified (MabSelect SuRe LX)
B3 returned a Kd in the test with NANP6 peptide of at most 0.0174 nM.

B4: mAb Ky224 (human IgG1) (antibody, V domains shown)
VH: QVQLVESGGGVVQPGRSLRLSCAASGFTFSVYGMHWVRQAPGKGLEWVAVIWYDGSNKIYADSVKGRFTISRDNSKNTLYLQMDSLSAADTAVYYCAKIGSSSFDYWGQGTLVIVSS
VL: DIVMTQTPLSSPVTLGQPASISCRSSQSLVHSNGITYLSWLQQRPGQPPRLLLYEISNRFSGVPDRFSGSGTGTDFTLKISRVEAEDVGVYYCMQTTQFPITFGQGTRLEIK
For the molecule B4, in test [1], the other was under 1.5 µg/mL.

B5: mAb Ky15.8 (human IgG1) (antibody, V domains shown)
VH: QVQLVESGGNVVQPGRSLRLSCTASGFTFSSYGMHWVRQAPDKGLEWVAIIWYDGGNKFYADSVKGRFTISRDNSKDTLYLQMNSLRAEDTAVYYCAKAWYKIDDKYSMDVWGQGTTVTVSS
VL: not shown
Take B5: the other in test [1] was under 1.5 µg/mL.

B6: mAb Ky15.2 (human IgG1) (antibody, V domains shown)
VH: QVLLVESGGGVVQPGTSLRLSCVASGFSFSTYGMHWVRQSPGKGLEWVAIIWYDGGNKFYADSVQGRFTVSRDNSKNTLYLQMNSLRAEDTAVYYCAKAYRTSLDKKYGMDVWGQGTTVTVSS
VL: DIQMTQSPSTLSASVGDRVTITCRASQSIASWLAWYQQKPGKAPKLLIYKASSLESGVPSRFSGSGSGTEFTLTISSLHPDDFATYFCQQFTSYWTFGQGTKVEIK
Turning to B6, the other in test [1] is under 1.5 µg/mL.

B7: mAb Ky15.11 (human IgG1) (antibody, V domains shown)
VH: QVQLVESGGGVVQPGRSLRLSCEASGFTFSNFGMHWVRQTPVKGLEWVAIIWFDGSYKYYTDSVKGRFTISRDNSKNTLYLQMNSLRAEDTAVYYCARARKGQRSDYYGSETSYTFDNWGQGTLVTVSS
VL: B6 VL with A30N, S31G, L46F, S53I, V58I, H79Q, F87Y, F91Y, T92S
On to B7, for which the other in test [1] was under 1.5 µg/mL.

B8: Ky15.2 (antibody, V domains shown)
VH: B6 VH
VL: B6 VL
notes: as for B3
As for B8, the Kd with NANP6 peptide stood at 0.0713 nM.

B9: mAb 2541 (antibody, V domains shown)
VH: QVQLVESGGGVVQPGRSLRLSCAASGFTFSSYGMHWVRQTTGKGLEWVAIIWHDGSKKYYADSVKGRLTISRDNSKNTLYLQMNSLRVEDTALYYCARVGDYSDFKYGAFDIWGQGTMVTVSS
VL: B6 VL with A30S, K45N, S53T, H79Q, F87Y, F91Y, T92N, K102R
notes: also called 254121 (label with citation mark 21)
B9: the kon in test [2] was found to be 71000 M⁻¹ s⁻¹. In addition, in the test with NANP6 peptide, the Kd is at most 0.133 nM, the koff is at most 1e-05 s⁻¹ and the kon was determined as 86600 M⁻¹ s⁻¹.

B10: mAb Ky15.7 (human IgG1) (antibody, V domains shown)
VH: QVQVVESGGGAVQPGRSLRLSCAASGFTFSNRGMHWVRQTPGKGLEWVAIIWYDGGNKFYADSVKGRFTISRDNSKNTLYLQMNSLRDEDTAVYYCVRAGDWKADKYTMDVWGQGTTVTVSS
VL: B6 VL with A30S, L46V, K50Q, H79Q, F87Y, F91Y, T92N
With B10, the other in test [1] is under 1.5 µg/mL.

B11: mAb 317 (antibody, V domains shown)
VH: QMQLVESGGGVVQPGRSLRLSCTASGFTFSTYAMHWVRQSPGQGLQWVAVISYHSTNKYYEDSVRGRFTISRDNSKNTLYLQMNSLRAEDTAVYYCARDGYSSSFFDFWGQGTLVTVSS
VL: DIQMTQSPSTLSASVGDRVAITCRASQSISRWLAWYQQQPGKAPKLLMSGASVLESGVPSRFSGSGSGTEFTLTISSLQPDDFATYYCQHYNSYFVTFGQGTKVEIK
notes: also called 31715 (label with citation mark 15)
Take B11: in test [2], the kon is 27200 M⁻¹ s⁻¹. Also, in the test with NANP6 peptide, the Kd turned out to be 0.404 nM, the off-rate (koff) was 0.000118 s⁻¹ and the kon is 292000 M⁻¹ s⁻¹.

B12: mAb Ky230 (human IgG1) (antibody, V domains shown)
VH: QVQLVESGGGVVQPGRSLRLSCAASGFTFSDYGMHWVRQAPGKGLEWVAIIWHDGSNKYYVDSVKGRFTISRDNSKNTLYLQMNSLRAEDTAVYYCARAASSFGSGFDYWGQGTLVTVSS
VL: DVVMTQSPLSLPVTLGQPASIFCRSSQSLVYSDGNTYLNWFQRRPGQSPRRLIYKVSDRDSGVPDRFSGSGSGTDFTLQISRVEAEDVGVYYCMQGTHWPPTFGQGTKVEIK
B12: the other in test [1] is under 1.5 µg/mL.

B13: Ky230 (antibody, V domains shown)
VH: B12 VH
VL: B12 VL
notes: as for B3
Regarding B13, the Kd in the test with NANP6 peptide came to 0.257 nM.

B14: mAb Ky311 (human IgG1) (antibody, V domains shown)
VH: QMHLVESGGGVVQPGRSLRLSCVASGFTFNNHGMHWVRQAPGKGLEWVAVIWHDGSNKFYADSVNGRFIVSRDNSKNTLYLHMNSLRAEDTAVYYCARDFFVSGSYNYFDPWGQGTLVTVSS
VL: EIVLTQSPVTLSLSPGERATLSCRASQSVSNYLAWYQQKPGQAPRLLIYDAANRATGTPARFSGSGSGTDFTLTISSLEPEDFAVYFCQQRSKWFTFGPGTKLDIK
In the case of B14, the other in test [1] is under 1.5 µg/mL.

B15: Ky311 (antibody, V domains shown)
VH: B14 VH
VL: B14 VL
notes: as for B3
The molecule B15 registered a Kd in the test with NANP6 peptide of at most 0.0233 nM.

B16: mAb Ky315 (human IgG1) (antibody, V domains shown)
VH: QVQLVESGGGVVQPGRSLRLSCAASGFTLSNYGVHWVRQAPGTGLEWVALIWYDGSNKFYADSVKGRFTISRDNSMDIVYLQMNNLRAEDTALYYCVRPGIAAAGSNYYAMDVWGQGTAVTVSS
VL: EIVMTQSPATLSMSPGERATLSCRASQSVGSDLAWFQQKPGQAPRLLIYGAFTRATGIPARFSGSGSGSEFTLTISSLQSEDFAVYYCQQYNRWWTFGQGTKVEMK
B16: the other in test [1] is under 1.5 µg/mL.

B17: Ky315 (antibody, V domains shown)
VH: B16 VH
VL: B16 VL
notes: as for B3
In the test with NANP6 peptide, B17 displayed a Kd of 0.0723 nM.

B18: mAb CIS43 (antibody, V domains shown)
VH: QVQLVQSGAEVKKPGASVKVSCKASGYTFTSYAIHWVRQAPGQRLEWMGWIKAGNGNTRYSQKFQDRVTITRDTSTTTAYMELSSLRSEDTAVYYCALLTVLTPDDAFDIWGQGTMVTVSS
VL: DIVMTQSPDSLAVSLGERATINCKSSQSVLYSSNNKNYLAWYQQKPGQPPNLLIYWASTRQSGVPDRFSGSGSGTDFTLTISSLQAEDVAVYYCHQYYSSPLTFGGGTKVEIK
notes: also called CIS4317 (label with citation mark 17)
B18: the kon in test [2] amounted to 444000 M⁻¹ s⁻¹. For the same molecule, in the test with NANP6 peptide, the Kd came out at 54.9 nM, the koff is 0.00974 s⁻¹ and the kon worked out at 179000 M⁻¹ s⁻¹.

B19: mAb Ky15.1 (human IgG1) (antibody, V domains shown)
VH: QVQLVESGGGVVQPGRSLRLSCAASGFTFSNFGMHWVRQTPDRGLEWVAIIWFDGSNTFYADSVKGRFTISRDNYKNTLYLQMNSLRAEDTAVYFCARSFYSDSAGSLFDYWGQGTLVTVSS
VL: DIQMTQSPSTLSASVGDRVTITCRASQSISSWVAWYQQKPGKAPKLLIYKASDLETGVPSRFSGSGSGTEFTLTISGLQPDDFVTYYCLQNMRYWTFGQGTKVEIK
B19: the other in test [1] was under 1.5 µg/mL.

B20: mAb Ky15.5 (human IgG1) (antibody, V domains shown)
VH: QVQMVASGGGVVQPGRSLRLSCAVSGFTFRNFGMHWVRQDPGRGLEWVAIIWYDGSYEFYADSVKGRFTISRDNSKNTLYLQMNSLRAEDTAVYYCARSYGSLTGDETKYGMDVWGQGTTVTVSS
VL: B1 VL with R31S, K38Q, T50K, N53S, Y92K, V105I
On to B20, for which the other in test [1] is under 1.5 µg/mL.

B21: Ky15.5 (antibody, V domains shown)
VH: B20 VH
VL: B1 VL with R31S, K38Q, T50K, N53S, Y92K, V105I
notes: as for B3
In turn, B21 showed a Kd with NANP6 peptide of at most 0.0369 nM.
